{"source": "patent US10519419B2", "about": "“Method for producing culture medium composition” (NISSAN CHEMICAL CORPORATION, priority 2014, dated 2019)", "key": {"[1]": {"assay": "State and viscosity measurement of medium composition (E type viscometer)", "format": "physicochemical", "conditions": "DMEM/F-12; for viscosity: 37°C, 100 rpm", "protocol": "The viscosity of the liquid containing the structure can be measured, for example, by the method described in the below-mentioned Examples. Specifically, it can be measured under 37° C. conditions and using an E-type viscosity meter (manufactured by Toki Sangyo Co., Ltd., TV-22 type viscosity meter, model: TVE-22L, corn roter: standard roter 1° 34′×R24, rotation number 100 rpm).\nThis aqueous solution was allowed to cool to room temperature with stirring, and sterilized at 121° C. for 20 min in an autoclave. […] The viscosity of the medium compositions was measured using an E type viscometer (manufactured by Toki Sangyo Co., Ltd., Viscometer TVE-22L, standard roter 1° 34′×R24) under 37° C. condition at 100 rpm for 5 min.\nThe medium compositions prepared above were subjected to a suspension test of HeLa cell spheres and a viscosity measurement, in the same manner as with the deacylated gellan gum-containing medium. The viscosity of 1.0% (w/v) methylcellulose was measured at 50 rpm due to the measurement range of the apparatus."}, "HeLa cell spheres": {"tested_on": "HeLa cell spheres", "assay": "Cell suspension test with HeLa cell spheres", "format": "cell-based, human", "conditions": "DMEM/F-12, 37°C, 1 hr", "protocol": "Human cervical cancer cell line HeLa (manufactured by DS PHARMA BIOMEDICAL CO., LTD.) was suspended in EMEM medium containing 10% (v/v) fetal bovine serum (manufactured by WAKO) at 250000 cells/mL, the suspension (10 mL) was plated on EZ SPHERE (manufactured by ASAHI GLASS CO., LTD.), and cultured in a CO2 incubator (5% CO2) for 3 days. The obtained suspension (10 mL) of spheres (diameter 100-200 μm) was centrifuged (200 G, 5 min) to allow for sphere sedimentation, and the supernatant was removed to give a sphere suspension (1.0 mL). Successively, the deacylated gellan gum-containing medium prepared above was placed in a 1.5 mL Eppendorf tube by 1.0 mL, and a HeLa cell sphere suspension (10 μL) was further added. The cell aggregate was dispersed by tapping, incubated at 37° C., and the dispersion state of the cells 1 hr later was visually observed.\nIn the same manner as in Reference Experimental Example 2, spheres of HeLa cells were formed, and several tens of the spheres were added to each medium (1 mL) prepared above, the mixture was stood still at 37° C. for 1 hr, and the suspended state of the sphere cells was visually observed. […] Furthermore, it was confirmed that addition of an equal amount of the medium to the cell suspension and centrifugation (300 to 400 G, 5 min) thereof result in sedimentation and recovery of the spheres of HeLa cells.\nIn the same manner as in Reference Experimental Example 2, spheres of HeLa cells were produced, and several tens of spheres were added to each medium (1 mL) prepared above, the mixture was stood still at 37° C. for 1 hr, and the suspended state of the sphere cells was visually observed. […] Furthermore, it was confirmed that centrifugation (200 G, 5 min) of the cell suspension containing 0.1% (w/v) diutan gum result in sedimentation and recovery of the spheres of HeLa cells."}}}
{"substance": "collagen", "values": [{"measurement": "state", "setting": "[1]; collagen 0.01% (w/v)", "value": "liquid"}, {"measurement": "viscosity", "setting": "[1]; collagen 0.01% (w/v)", "value": 1.18, "unit": "mPa · s"}, {"measurement": "state", "setting": "[1]; collagen 0.05% (w/v)", "value": "liquid/solid"}, {"measurement": "viscosity", "setting": "[1]; collagen 0.05% (w/v)", "value": "unmeasurable"}, {"measurement": "state", "setting": "[1]; collagen 0.1% (w/v)", "value": "solid (gel)"}, {"measurement": "viscosity", "setting": "[1]; collagen 0.1% (w/v)", "value": "unmeasurable"}, {"measurement": "state", "setting": "[1]; collagen 0.2% (w/v)", "value": "solid (gel)"}, {"measurement": "viscosity", "setting": "[1]; collagen 0.2% (w/v)", "value": "unmeasurable"}, {"measurement": "HeLa cell suspension/sedimentation", "setting": "HeLa cell spheres; collagen 0.01% (w/v)", "value": "sedimentation"}, {"measurement": "HeLa cell suspension/sedimentation", "setting": "HeLa cell spheres; collagen 0.05% (w/v)", "value": "suspension"}, {"measurement": "HeLa cell suspension/sedimentation", "setting": "HeLa cell spheres; collagen 0.1% (w/v)", "value": "suspension"}, {"measurement": "HeLa cell suspension/sedimentation", "setting": "HeLa cell spheres; collagen 0.2% (w/v)", "value": "suspension"}]}
